Measurements from the supplement of paper PMC12764529.
± gives the half width of the 95% confidence interval.

Assays:
[1] = folding stability dG unfold from trypsin proteolysis; higher = more stable
Summary of the method: (§1)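 Bayesian fitting of sequencing counts gave K50 for each design. Unfolding free energy followed by setting this against a sequence-predicted unfolded-state K50 and a shared folded-state K50, either per protease or with trypsin and chymotrypsin combined. The designs, under 80 residues and lacking cysteine, were digested in a PA-tagged cDNA display format at 11 threefold-diluted protease concentrations and without protease, and only those with AlphaFold2 dimer inter-PAE above 15 were kept.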

[2] = folding stability dG unfold (combined trypsin and chymotrypsin); higher = more stable
Summary of the method: as §1

[3] = folding stability dG unfold from chymotrypsin proteolysis; higher = more stable
Summary of the method: as §1

Row | Sequence | folding stability dG unfold [1] | folding stability dG unfold [2] | folding stability dG unfold [3]
1 | NKAQKLARSLARKFMRPHGYPMEIDPENNSIRFPNGEPIMEIPIDIVLLDDDGKIVEEINIPIRIRMRPPKS [r1_318_TrROS] | 0.695 ± 0.16 kcal/mol | 0.762 ± 0.23 kcal/mol | 0.782 ± 0.27 kcal/mol
2 | PDNEPPQWYRVWIPIDPEDGKIEVKPGGSTMTIDLPDGRPIEFYVPQGMSPSDIKNWAKGIAKELAEELKNS [r1_25_TrROS] | 1.54 ± 0.076 kcal/mol | 1.52 ± 0.2 kcal/mol | 1.58 ± 0.18 kcal/mol
3 | PFDIRINVEYERDPDNGKEYIEVSIMVWDGNPEQARDIAKEILEEHFGWKIKDVKVERFPDMYMITFKIRLS [r1_337_TrROS] | 3.46 ± 0.12 kcal/mol | 3.78 ± 0.32 kcal/mol | 4.18 ± 0.082 kcal/mol
4 | PKWYEMNITINLPPDDPQKVKELKDALKKRNPDYKVKDIQFNPDDGQITINVWMPPQDQNRFQKAIKELLGS [r1_443_TrROS] | 1.86 ± 0.062 kcal/mol | 2.12 ± 0.084 kcal/mol | 2.31 ± 0.025 kcal/mol
5 | PMIAPARLPDGSQTVSIFNANGELLVEAVVENDPELIEEAIEKLFEALPNIKPEELHVSVSDPETGESREIS [r1_55_TrMRF] | 1.05 ± 0.049 kcal/mol | 0.671 ± 0.19 kcal/mol | 0.345 ± 0.17 kcal/mol
6 | QRVLPFKNPDGDYWVMIMNPNGDPLVEHRIPNDPEQMEKAIHKLMEQLPNFDPEDLRIAVMNPKNGESQEIS [r1_55_TrROS] | 0.222 ± 0.16 kcal/mol | 0.61 ± 0.13 kcal/mol | 0.868 ± 0.12 kcal/mol
7 | SAAEPPPVYLVRITVKVPPGVKPLPPGAVVTYDPATGTLTVYVLMTADEIDALAAAPGVEITDIEVIKLDSA [r9_827_TrROS_Hall] | 3.16 ± 0.22 kcal/mol | 4.59 ± 0.24 kcal/mol | 4.94 ± 0.28 kcal/mol
8 | SAAKITEVDVEVGGDTITTTFRLEIDGKPYLAVTRLEPLTDPDGNPRFIAVTELYDEDGNLVATLPSDLSAG [r14_465_TrMRF] | 1.59 ± 0.032 kcal/mol | 2.06 ± 0.059 kcal/mol | 2.325 ± 0.018 kcal/mol
9 | SAANTEEITITVPLTDPETGEERTVTIPVKYVNTNKPYKTPNGSTKTIPVPKSTVIKEAEEEAKKIFESSSA [r9_698_JUSTAS] | -0.381 ± 0.95 kcal/mol | -0.369 ± 0.56 kcal/mol | 0.213 ± 0.3 kcal/mol
10 | SAAPDEVVTLEFTVPVVTTFEPGAPYVAPARLTVTFHPPDRVEIRLVSPDGRLVATRTVPPSVLLSEVISAG [r14_559_TrMRF] | 1.62 ± 0.032 kcal/mol | 1.88 ± 0.081 kcal/mol | 2.03 ± 0.041 kcal/mol
11 | SAAPVRVEVEYDPERGVLRVRLYIPATSPEEARELVERFFAALGAEARITENPETGTFVVEVDIRLPPASAG [r14_424_TrMRF] | 4.09 ± 0.09 kcal/mol | 4.92 ± 0.074 kcal/mol | 5.15 ± 0.056 kcal/mol
12 | SAARKIAKKLKEAFPNFPIKDIEITEYEPNPNGRPYMNISIQFPNGGKMEIQFDDPEHPEIREAIREIMSAG [r14_143_TrROS] | 1.59 ± 0.11 kcal/mol | 1.49 ± 0.19 kcal/mol | 1.69 ± 0.086 kcal/mol
13 | SAATSSTSISIPASTTSLEDVRATLAALGYPPERIVALEVVKVEPGSTKITVTLERPDGTRRTVTVTSASAG [r14_30_JUSTAS] | 3.14 ± 0.054 kcal/mol | 2.76 ± 0.058 kcal/mol | 2.388 ± 0.011 kcal/mol
14 | SADEALRRLLENMTPEELAALLAPAVPGPPVEVLVVPREVLPEVLRRLREEFDVEFEEEGDFVRIVVRGSAG [r14_7_TrMRF] | 2.28 ± 0.029 kcal/mol | 2.73 ± 0.04 kcal/mol | 2.915 ± 0.016 kcal/mol
15 | SADHKFEIDINVFEHDGWRYIMIPVKYDDPQDVDEAAEKILREFGIPPNFNVNVMRSPNEVWINIRIPYSAG [r14_804_TrROS] | 2.08 ± 0.06 kcal/mol | 2.53 ± 0.15 kcal/mol | 2.85 ± 0.077 kcal/mol
16 | SADLAAELEEGGFVVTITETVVSVTPQTLEKDSFVVEKDVVTTITVTPPPVAPPPPDPANLRDAAGAPVSAG [r14_569_JUSTAS] | -0.0411 ± 0.041 kcal/mol | 0.798 ± 0.084 kcal/mol | 1.01 ± 0.023 kcal/mol

Row | Sequence | folding stability dG unfold [1] | folding stability dG unfold [2] | folding stability dG unfold [3]
17 | SADLAKNIAKKLNPDIKDVQIKDIELQPNPDNGYPVIKVELEVKMNDGPYKKSIWFMPNGFQIKIQPVPSAG [r14_397_TrROS] | 0.783 ± 0.17 kcal/mol | 1.44 ± 0.29 kcal/mol | 1.77 ± 0.21 kcal/mol
18 | SADPGDTVELEFWLPPGMNPEFVEQMEDEIRNILRDLGLEVDVKVEPDPDNGYVPVTITITKEQLKDLFSAG [r14_602_TrROS] | 1.93 ± 0.12 kcal/mol | 1.82 ± 0.18 kcal/mol | 1.74 ± 0.1 kcal/mol
19 | SADPLSSILSQALSVEFDPETGKVTITTKDKSIVEKALEEGAENATLTESEDDIYTATIDLPPLPEGVLSAG [r14_115_TrMRF] | 0.576 ± 0.12 kcal/mol | 0.12 ± 0.39 kcal/mol | -0.155 ± 0.085 kcal/mol
20 | SAEEELRKALENMSDEELEALLRAAAPPPKTVTIRLSEEELEKLAQELADEYNVTVTVEVDGKTLTLTLSAG [r14_7_TrROS_Hall] | 1.69 ± 0.024 kcal/mol | 1.76 ± 0.049 kcal/mol | 1.74 ± 0.051 kcal/mol
21 | SAEELARRLRELGLEVEIVRIERERRPDGTIRIEVRLDGELVAELEVRLPPPPPPVEVVRDADGRERRVRSA [r9_442_TrROS_Hall] | 1.63 ± 0.18 kcal/mol | 1.9 ± 0.27 kcal/mol | 1.82 ± 0.4 kcal/mol
22 | SAEEPEVVRLEIRITVVERDEDGRLREREVTLEVEVLPDGRVVIRVDGRVFVIDLETGELVEVLEDVEPSAG [r14_821_TrROS_Hall] | 3.77 ± 0.099 kcal/mol | 4.02 ± 0.089 kcal/mol | 4.14 ± 0.081 kcal/mol
23 | SAEKEYKVKVKVKIEIVELSEEELENLPPGALVIEVDGKLYLMRIEVEEVEVEEVPEEPEVDEETGELLSAG [r14_126_TrROS_Hall] | 2.28 ± 0.16 kcal/mol | 3.33 ± 0.17 kcal/mol | 3.86 ± 0.1 kcal/mol
24 | SAEKIYYKVKVKVEIEKDGKPDIELEIEFIVSPEIPPEKVKEFIEKFLKSKGYKIKKIEIETEPIPSLESAG [r14_979_TrMRF] | 3.95 ± 0.31 kcal/mol | 5.03 ± 0.29 kcal/mol | 4.86 ± 0.13 kcal/mol
25 | SAEKKTVRVVLEITLPPGLKPGDTITVKIEVDGKVYEAKILRVEEVPPGQTVRIVLELPAEDVKITIEPSAG [r14_554_TrROS_Hall] | 3.21 ± 0.079 kcal/mol | 3.81 ± 0.071 kcal/mol | 4.06 ± 0.08 kcal/mol
26 | SAEKPPVVTLEIEIEIVVKDENGKTHKRKFRLTVTFYPDGTVEISIYDENGELIETITLPPGATLEELLSAG [r14_559_TrROS_Hall] | 2.26 ± 0.083 kcal/mol | 3.61 ± 0.11 kcal/mol | 3.99 ± 0.15 kcal/mol
27 | SAELLEELLKKAREEAEKEGKKVEIHLVLVVEKDENGKVTFTEEEKELIKKLKEAFPDVEIKIEVVELPSAG [r14_636_TrROS_Hall] | 2.83 ± 0.18 kcal/mol | 3.28 ± 0.13 kcal/mol | 3.45 ± 0.16 kcal/mol
28 | SAELPPGMRLVIDDIEPMRNNGKPMLMIKLSIYDPAKPGKEITHWTIMVTNDNIMAIQPTTYRIPPDDISAG [r14_651_TrROS] | 2.64 ± 0.075 kcal/mol | 2.57 ± 0.22 kcal/mol | 2.63 ± 0.12 kcal/mol
29 | SAEMTEEERARRLAEKLREELEELGVEKVEIEFDEEERRVTVRVTLSPEVREKLAERLGLSREELDALLSAG [r14_688_TrROS_Hall] | 4.1 ± 0.1 kcal/mol | 3.43 ± 0.079 kcal/mol | 2.914 ± 0.023 kcal/mol
30 | SAEPITITWPNGMQIPLYKDDDGEIEIKIQMYDPKDGKPVGEQEQRIDPDDNTIEFRFPNGWPFSITIPDSA [r9_56_TrROS] | 0.835 ± 0.11 kcal/mol | 0.473 ± 0.22 kcal/mol | 0.0536 ± 0.57 kcal/mol
31 | SAERTPVREADIPIPGLPVVVRVRTYAEAVELARKSGVPVVVETVEVEVFLPDGSRVRFPAPGLLVLDGSAG [r14_100_TrMRF] | 1.41 ± 0.0081 kcal/mol | 1.5 ± 0.036 kcal/mol | 1.55 ± 0.055 kcal/mol
